From patent US9549967B2, “Regulation of sodium channels by PLUNC proteins” (The University of North Carolina at Chapel Hill, priority 2009, dated 2017)

How the values were obtained:
[1] = target: T1, CFTR (Homo sapiens, UniProt P13569); assay: CFTR activity in Xenopus oocytes co-expressing CFTR and β2 adrenergic receptor; type: cell-based; details: after 10 μM isoproterenol
T1 construct: expressed in transfected cells; host or cells: Xenopus laevis oocytes
Procedure: Oocyte studies. Xenopus laevis oocytes were harvested and injected as described (Donaldson, et al., J. Biol. Chem. 277:8338 (2002)). Defolliculated healthy stage V-VI oocytes were injected with 0.3 ng of cRNA of each ENaC subunit. Injected oocytes were kept in modified Barth's saline (in mM: 88 NaCl, 1 KCl, 2.4 NaHCO3, 0.3 Ca(NO3)2, 0.41 CaCl2, 0.82 MgSO4, and 15 HEPES, adjusted to pH 7.35 with Tris). Oocytes were studied 24 hr after injection using the two electrode voltage clamp technique as previously described (Donaldson, et al., J. Biol. Chem. 277:8338 (2002)). Oocytes were clamped at a holding potential of […]. The change in amiloride-sensitive whole cell current as an indicator of ENaC activity was determined by subtracting the corresponding current value measured in the presence of 10 μM amiloride from that measured before the application of amiloride.
In both cases, we co-expressed CFTR with the β2 adrenergic receptor (β2AR) which can be stimulated with isoproterenol to raise cAMP and stimulate CFTR (Uezono et al., Receptors Channels 1:233 (1993)).

[2] = target: T2, αENaC (Rattus norvegicus, UniProt P37089); assay: Surface biotinylation of αENaC in Xenopus oocytes; type: cell-based; details: coexpression with SPLUNC1 in oocytes
T2 construct: expressed in transfected cells; host or cells: Xenopus oocytes
T2 sequence (P37089 1-698): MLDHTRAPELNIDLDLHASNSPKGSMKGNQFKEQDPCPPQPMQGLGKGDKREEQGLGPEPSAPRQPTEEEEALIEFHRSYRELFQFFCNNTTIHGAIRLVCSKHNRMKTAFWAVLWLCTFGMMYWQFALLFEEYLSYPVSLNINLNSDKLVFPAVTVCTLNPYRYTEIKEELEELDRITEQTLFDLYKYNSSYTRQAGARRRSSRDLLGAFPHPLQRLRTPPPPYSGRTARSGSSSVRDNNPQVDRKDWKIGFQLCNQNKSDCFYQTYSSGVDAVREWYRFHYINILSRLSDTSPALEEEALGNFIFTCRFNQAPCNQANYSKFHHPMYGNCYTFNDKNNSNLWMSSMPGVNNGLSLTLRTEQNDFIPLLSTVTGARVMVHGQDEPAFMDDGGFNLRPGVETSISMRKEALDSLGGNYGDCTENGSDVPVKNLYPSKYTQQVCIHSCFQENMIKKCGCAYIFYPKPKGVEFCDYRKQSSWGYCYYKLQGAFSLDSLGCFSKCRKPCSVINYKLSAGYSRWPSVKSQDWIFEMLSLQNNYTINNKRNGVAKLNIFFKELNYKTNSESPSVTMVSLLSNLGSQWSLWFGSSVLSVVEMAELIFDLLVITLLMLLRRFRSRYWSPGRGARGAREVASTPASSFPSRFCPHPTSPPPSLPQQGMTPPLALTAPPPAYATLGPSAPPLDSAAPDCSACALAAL
T2 sequence (P37090 1-638 partner): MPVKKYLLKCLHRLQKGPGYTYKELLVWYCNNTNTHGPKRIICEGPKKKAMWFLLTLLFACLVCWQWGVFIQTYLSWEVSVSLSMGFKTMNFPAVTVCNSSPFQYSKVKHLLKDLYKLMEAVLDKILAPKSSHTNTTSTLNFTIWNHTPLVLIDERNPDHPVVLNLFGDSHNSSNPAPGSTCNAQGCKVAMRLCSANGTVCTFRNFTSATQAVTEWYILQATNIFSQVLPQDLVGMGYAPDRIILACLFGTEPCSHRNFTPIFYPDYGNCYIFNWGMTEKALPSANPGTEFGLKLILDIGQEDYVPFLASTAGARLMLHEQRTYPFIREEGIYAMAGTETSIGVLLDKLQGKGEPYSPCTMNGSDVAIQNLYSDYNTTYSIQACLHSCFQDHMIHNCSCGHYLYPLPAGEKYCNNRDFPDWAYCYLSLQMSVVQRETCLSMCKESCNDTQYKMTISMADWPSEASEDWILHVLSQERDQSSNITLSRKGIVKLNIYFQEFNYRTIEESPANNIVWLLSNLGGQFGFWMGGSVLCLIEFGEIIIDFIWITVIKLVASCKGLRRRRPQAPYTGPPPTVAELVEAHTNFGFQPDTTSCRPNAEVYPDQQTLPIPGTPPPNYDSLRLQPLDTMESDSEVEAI
T2 sequence (P37091 1-650 partner): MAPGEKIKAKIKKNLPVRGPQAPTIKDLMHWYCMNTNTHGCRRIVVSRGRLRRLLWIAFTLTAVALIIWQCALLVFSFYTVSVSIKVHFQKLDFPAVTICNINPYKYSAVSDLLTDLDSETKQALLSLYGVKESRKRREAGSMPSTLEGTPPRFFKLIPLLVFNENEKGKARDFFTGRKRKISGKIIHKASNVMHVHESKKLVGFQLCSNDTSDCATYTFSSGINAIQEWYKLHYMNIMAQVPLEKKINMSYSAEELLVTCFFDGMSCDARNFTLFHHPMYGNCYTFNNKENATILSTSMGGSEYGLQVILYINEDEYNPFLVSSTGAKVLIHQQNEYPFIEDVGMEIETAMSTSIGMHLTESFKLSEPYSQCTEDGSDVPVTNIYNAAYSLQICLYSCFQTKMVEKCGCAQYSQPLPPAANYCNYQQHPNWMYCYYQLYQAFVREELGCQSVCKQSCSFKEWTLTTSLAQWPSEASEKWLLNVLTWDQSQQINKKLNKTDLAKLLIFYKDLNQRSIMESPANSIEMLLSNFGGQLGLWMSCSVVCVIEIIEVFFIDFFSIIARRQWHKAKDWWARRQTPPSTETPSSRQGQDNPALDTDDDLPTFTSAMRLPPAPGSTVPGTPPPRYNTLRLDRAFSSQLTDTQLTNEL
Procedure: The effect of SPLUNC1 on the number of ENaC channels in the plasma membrane was tested by expressing SPLUNC1 and αENaC in Xenopus oocytes. After surface biotinylation of αENaC, total lysate was prepared and lysate from 3-4 eggs was separated on a 10% gel.

T1 sequence (P13569 whole entry, species assumed): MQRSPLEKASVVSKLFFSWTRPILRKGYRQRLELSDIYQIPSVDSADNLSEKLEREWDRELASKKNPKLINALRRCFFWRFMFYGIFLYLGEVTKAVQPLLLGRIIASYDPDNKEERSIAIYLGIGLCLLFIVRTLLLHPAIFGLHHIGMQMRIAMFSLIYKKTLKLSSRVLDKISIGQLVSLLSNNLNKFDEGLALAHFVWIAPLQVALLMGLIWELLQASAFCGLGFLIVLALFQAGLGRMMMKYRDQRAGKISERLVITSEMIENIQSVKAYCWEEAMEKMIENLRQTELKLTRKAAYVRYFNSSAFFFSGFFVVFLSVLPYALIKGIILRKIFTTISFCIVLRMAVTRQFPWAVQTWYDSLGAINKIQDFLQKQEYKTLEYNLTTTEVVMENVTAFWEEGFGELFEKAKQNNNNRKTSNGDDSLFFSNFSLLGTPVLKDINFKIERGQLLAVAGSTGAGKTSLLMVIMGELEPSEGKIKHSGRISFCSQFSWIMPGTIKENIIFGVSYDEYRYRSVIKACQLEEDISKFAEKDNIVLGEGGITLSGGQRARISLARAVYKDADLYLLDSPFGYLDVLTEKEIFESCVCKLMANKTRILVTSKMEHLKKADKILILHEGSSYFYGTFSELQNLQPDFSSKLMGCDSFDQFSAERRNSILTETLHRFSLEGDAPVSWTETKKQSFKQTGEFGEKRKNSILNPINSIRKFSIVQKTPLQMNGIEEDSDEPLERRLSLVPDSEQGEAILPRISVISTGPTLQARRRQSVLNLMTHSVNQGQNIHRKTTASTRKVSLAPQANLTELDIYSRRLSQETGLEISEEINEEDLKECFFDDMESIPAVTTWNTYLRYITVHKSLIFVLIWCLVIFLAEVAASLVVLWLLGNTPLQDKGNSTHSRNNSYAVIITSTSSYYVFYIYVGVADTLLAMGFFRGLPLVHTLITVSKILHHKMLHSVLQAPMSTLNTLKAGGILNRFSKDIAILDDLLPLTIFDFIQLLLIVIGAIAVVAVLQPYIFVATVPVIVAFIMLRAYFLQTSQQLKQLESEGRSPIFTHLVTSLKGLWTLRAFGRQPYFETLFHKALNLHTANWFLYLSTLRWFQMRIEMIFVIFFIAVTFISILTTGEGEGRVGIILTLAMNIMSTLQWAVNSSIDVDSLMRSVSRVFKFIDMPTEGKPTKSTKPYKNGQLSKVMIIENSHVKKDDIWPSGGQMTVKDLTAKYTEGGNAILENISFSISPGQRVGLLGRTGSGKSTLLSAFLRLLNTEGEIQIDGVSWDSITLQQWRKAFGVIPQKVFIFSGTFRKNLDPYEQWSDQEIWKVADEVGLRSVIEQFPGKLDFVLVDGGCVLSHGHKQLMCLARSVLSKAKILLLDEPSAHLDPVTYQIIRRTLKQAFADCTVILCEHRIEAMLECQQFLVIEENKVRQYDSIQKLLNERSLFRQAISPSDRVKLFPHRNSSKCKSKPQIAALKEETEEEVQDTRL

B1: SPLUNC1: human SPLUNC1, 256 amino acid secreted PLUNC protein (SEQ ID NO:1); rSPLUNC1 = V5/6His-tagged protein purified from HEK293 media (protein, listed as Homo sapiens)
chain: MFQTGGLIVFYGLLAQTMAQFGGLPVPLDQTLPLNVNPALPLSPTGLAGSLTNALSNGLLSGGLLGILENLPLLDILKPGGGTSGGLLGGLLGKVTSVIPGLNNIIDIKVTDPQLLELGLVQSPDGHRLYVTIPLGIKLQVNTPLVGASLLRLAVKLDITAEILAVRDKQERIHLVLGDCTHSPGSLQISLLDGLGPLPIQGLLDSLTGILNKVLPELVQGNVCPLVNEVLRGLDITLVHDIVNMLIHGLQFVIKV
modifications: V5/6His tag
notes: rSPLUNC1 = V5/6His-tagged protein purified from HEK293 media
In the case of B1, the “effect on CFTR activity” value ([1]; 5 ng/ml rSPLUNC1 exposure) is reported as “no inhibitory effect”, the “effect on CFTR activity” value ([1]; injection of SPLUNC1 cRNA) is reported as “no inhibitory effect” and the “plasma membrane ENaC (surface biotinylation)” value [2] is reported as “decreased”.
